The record followed here is paper PMC11640301, “Escherichia coli tRNA (Gm18) methyltransferase (TrmH) requires the correct localization of its methylation site (G18) in the D-loop for efficient methylation” (Journal of Biochemistry, 2023).

For data set [1], the target named is E. coli TrmH (without a tag sequence) (Escherichia coli, UniProt P0AGJ2). Kind of data set: radiometric filter assay, methyl transfer to tRNA transcript. The data set is classed as biochemical. Particulars: methyl donor; 200 μM SAM, tRNA^SerCGA transcript, pH 7.6, 37 °C; labelled compound.
In data set [2] the target is T1, TrmH (tRNA Gm18 methyltransferase) (Escherichia coli HB101 (gene source), UniProt P0AGJ2 1-229).
T1 sequence: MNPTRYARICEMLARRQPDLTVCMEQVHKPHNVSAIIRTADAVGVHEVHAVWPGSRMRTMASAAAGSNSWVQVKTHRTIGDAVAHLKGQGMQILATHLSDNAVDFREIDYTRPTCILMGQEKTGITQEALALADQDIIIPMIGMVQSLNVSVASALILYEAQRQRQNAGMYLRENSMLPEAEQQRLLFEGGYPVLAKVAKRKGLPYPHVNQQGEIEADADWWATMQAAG
Kind of data set: EMSA; 5 mM Mg-acetate, 400 mM KCl; no SAM listed; tRNA 4.25 uM, complex at enzyme below 10 uM; slightly weaker than T. thermophilus TrmH; 50 mM Tris-HCl pH 7.6, 5 mM Mg-acetate, 6 mM 2-mercaptoethanol, 400 mM KCl, 5% glycerol; room temperature 30 min; 4.25 uM tRNA, 0-17 uM TrmH; 6% native PAGE. As to conditions: protein: recombinant; tags: none (pET30a, untagged); chain copies: 2; label: none; tRNA cloverleaf, long variable region. For orientation: Mobility shift assays separate free from complexed probe on a gel.

Data set [3] has as its target T2, TrmH (tRNA Gm18 methyltransferase) (Thermus thermophilus, UniProt Q5SM16 1-194).
T2 sequence: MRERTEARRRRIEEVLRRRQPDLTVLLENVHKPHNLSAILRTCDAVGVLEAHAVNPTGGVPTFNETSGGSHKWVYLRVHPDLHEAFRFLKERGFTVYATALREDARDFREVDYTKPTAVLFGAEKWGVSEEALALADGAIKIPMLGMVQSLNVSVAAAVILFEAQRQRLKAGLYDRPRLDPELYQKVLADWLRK
Description: EMSA; 5 mM Mg-acetate, 400 mM KCl; no SAM listed; tRNA 4.25 uM; 50 mM Tris-HCl pH 7.6, 5 mM Mg-acetate, 6 mM 2-mercaptoethanol, 400 mM KCl, 5% glycerol; room temperature 30 min; 4.25 uM tRNA, 0-17 uM TrmH; 6% native PAGE. As to conditions: protein: recombinant; chain copies: 2; label: none; tRNA cloverleaf, long variable region.

Data set [4] concerns the molecule itself. Description: crystal structure; E107G TrmH co-crystallised with 2 mM SAM; hanging-drop vapor diffusion, 20°C, 100 mM HEPES-NaOH (pH 7.6), 5% MPD, 10% PEG 6000; space group C2, one E107G-SAM molecule per asymmetric unit; dimer.

`C[S+](CC[C@H](N)C(=O)O)C[C@H]1O[C@@H](n2cnc3c(N)ncnc32)[C@H](O)[C@@H]1O` (stereo partly drawn) [S-adenosyl-L-methionine]: in data set [1], the “radiometric filter assay, methyl transfer to tRNA transcript” value was “incorporation of the methyl group from [methyl-^3H]-SAM into E. coli tRNA^SerCGA transcript was monitored”.

B1: tRNASerCGA transcript (structured_RNA)
RNA: GGAGAGAUGCCGGAGCGGCUGAACGGACCGGUCUCGAAAACCGGAGUAGGGGCAACUCUACCGGGGGUUCAAAUCCCCCUCUCUCCGCCA
modifications: none (unmodified transcript)
For B1, the binding result in data set [2] and in data set [3] was “binds” each time.

B2: E. coli TrmH (E107G) mutant, tRNA (Gm18) methyltransferase, with 6x His tag (enzyme, UniProt P0AGJ2 1-229, looked up)
chain: MNPTRYARICEMLARRQPDLTVCMEQVHKPHNVSAIIRTADAVGVHEVHAVWPGSRMRTMASAAAGSNSWVQVKTHRTIGDAVAHLKGQGMQILATHLSDNAVDFRGIDYTRPTCILMGQEKTGITQEALALADQDIIIPMIGMVQSLNVSVASALILYEAQRQRQNAGMYLRENSMLPEAEQQRLLFEGGYPVLAKVAKRKGLPYPHVNQQGEIEADADWWATMQAAG
notes: TrmH, tRNA (Gm18) 2'-O-methyltransferase of Escherichia coli; trmH gene amplified from E. coli HB101 genomic DNA with primers from the start codon to the stop codon; Glu107 replaced with Gly; No removal of the His tag is described; One molecule per asymmetric unit, so the dimer is formed by crystal symmetry; also called E107G mutant TrmH; E107G-SAM; source: E. coli BL21 (DE3) Rosetta 2, …
The stoichiometry N is the number of molecules, sites or subunits per partner or assembly. For B2, the “stoichiometry N” value in data set [4] was determined as 2.
